Values quoted from earlier work as cited in paper PMC6752817, “Identification and characterization of a novel heparan sulfate-binding domain in Activin A longest variants and implications for function” (PLoS ONE, 2019).

Test system: mutant ALK2
Settings: ref [52]; cited from earlier work
Description: In the musculoskeletal research field, interest in Act A biology has been re-invigorated by recent evidence of its pathogenic roles in the pediatric congenital disorder Fibrodysplasia Ossificans Progressiva (FOP). FOP is characterized by episodic formation of extraskeletal cartilage and bone tissue–a process collectively termed heterotopic ossification (HO)—at multiple sites, eventually involving much of the body. HO is preceded by local inflammation and over time, the accumulated ectopic tissue causes multiple health problems and impediments—including skeletal deformities, chron ...

B1: activin A (protein, UniProt P08476 311-426, looked up)
Inhibin beta A chain: GLECDGKVNICCKKQFFVSFKDIGWNDWIIAPSGYHANYCEGECPSHIAGTSGSSLSFHSTVINHYRMRGHSPFANLKSCCVPTKLRPMSMLYYDDGQNIIKKDIQNMIVEECGCS
modifications: Inhibin beta A chain
pSMAD1/5/8 signaling through mutant ALK2: elicits pSMAD1/5/8 signaling
